Assay results as given in PMC4859480.

Molecular target: HHV-6B U14 N-terminal domain (U14-NTD), residues 2-458 (human herpesvirus 6B (HHV-6B) strain HST)
Assay: crystal structure

## HHV-6B U14 N-terminal domain (U14-NTD), residues 2-458 (domain or fragment)
  stoichiometry N: 2
